Experimental data from PMC9482650, “Quantitative fragmentomics allow affinity mapping of interactomes” (Nature Communications, 2022).

Molecular target: T1, PDZD2_6, O15018
T1 sequence (O15018 2745-2839, limits assumed, looked up): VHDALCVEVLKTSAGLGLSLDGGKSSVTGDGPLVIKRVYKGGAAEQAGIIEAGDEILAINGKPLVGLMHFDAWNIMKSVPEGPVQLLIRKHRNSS
Test: holdup assay
Details: plain residues with an end cap or a label only (N-terminal biotin on a linker: (peg)3)

B1: SARS-CoV-E, P59637 (peptide)
chain: NLNSSEGVPDLLV
  pKd: 4.26
